From article PMC3213134, “A Non-Motor Microtubule Binding Site Is Essential for the High Processivity and Mitotic Function of Kinesin-8 Kif18A” (PLoS ONE, 2011)

B1: His-Kif18A^FL-GFP (natural protein, human, UniProt Q8NI77 1-898, looked up)
chain: MSVTEEDLCHHMKVVVRVRPENTKEKAAGFHKVVHVVDKHILVFDPKQEEVSFFHGKKTTNQNVIKKQNKDLKFVFDAVFDETSTQSEVFEHTTKPILRSFLNGYNCTVLAYGATGAGKTHTMLGSADEPGVMYLTMLHLYKCMDEIKEEKICSTAVSYLEVYNEQIRDLLVNSGPLAVREDTQKGVVVHGLTLHQPKSSEEILHLLDNGNKNRTQHPTDMNATSSRSHAVFQIYLRQQDKTASINQNVRIAKMSLIDLAGSERASTSGAKGTRFVEGTNINRSLLALGNVINALADSKRKNQHIPYRNSKLTRLLKDSLGGNCQTIMIAAVSPSSVFYDDTYNTLKYANRAKDIKSSLKSNVLNVNNHITQYVKICNEQKAEILLLKEKLKAYEEQKAFTNENDQAKLMISNPQEKEIERFQEILNCLFQNREEIRQEYLKLEMLLKENELKSFYQQQCHKQIEMMCSEDKVEKATGKRDHRLAMLKTRRSYLEKRREEELKQFDENTNWLHRVEKEMGLLSQNGHIPKELKKDLHCHHLHLQNKDLKAQIRHMMDLACLQEQQHRQTEAVLNALLPTLRKQYCTLKEAGLSNAAFESDFKEIEHLVERKKVVVWADQTAEQPKQNDLPGISVLMTFPQLGPVQPIPCCSSSGGTNLVKIPTEKRTRRKLMPSPLKGQHTLKSPPSQSVQLNDSLSKELQPIVYTPEDCRKAFQNPSTVTLMKPSSFTTSFQAISSNINSDNCLKMLCEVAIPHNRRKECGQEDLDSTFTICEDIKSSKCKLPEQESLPNDNKDILQRLDPSSFSTKHSMPVPSMVPSYMAMTTAAKRKRKLTSSTSNSSLTADVNSGFAKRVRQDNSSEKHLQENKPTMEHKRNICKINPSMVRKFGRNISKGNLR
notes: also called full-length Kif18A^FL-GFP; not shown: His6, N-terminal, kept; GFP, C-terminal, kept
B2: His-Kif18A^1-777-GFP (domain or fragment, human, UniProt Q8NI77 1-777, looked up)
chain: MSVTEEDLCHHMKVVVRVRPENTKEKAAGFHKVVHVVDKHILVFDPKQEEVSFFHGKKTTNQNVIKKQNKDLKFVFDAVFDETSTQSEVFEHTTKPILRSFLNGYNCTVLAYGATGAGKTHTMLGSADEPGVMYLTMLHLYKCMDEIKEEKICSTAVSYLEVYNEQIRDLLVNSGPLAVREDTQKGVVVHGLTLHQPKSSEEILHLLDNGNKNRTQHPTDMNATSSRSHAVFQIYLRQQDKTASINQNVRIAKMSLIDLAGSERASTSGAKGTRFVEGTNINRSLLALGNVINALADSKRKNQHIPYRNSKLTRLLKDSLGGNCQTIMIAAVSPSSVFYDDTYNTLKYANRAKDIKSSLKSNVLNVNNHITQYVKICNEQKAEILLLKEKLKAYEEQKAFTNENDQAKLMISNPQEKEIERFQEILNCLFQNREEIRQEYLKLEMLLKENELKSFYQQQCHKQIEMMCSEDKVEKATGKRDHRLAMLKTRRSYLEKRREEELKQFDENTNWLHRVEKEMGLLSQNGHIPKELKKDLHCHHLHLQNKDLKAQIRHMMDLACLQEQQHRQTEAVLNALLPTLRKQYCTLKEAGLSNAAFESDFKEIEHLVERKKVVVWADQTAEQPKQNDLPGISVLMTFPQLGPVQPIPCCSSSGGTNLVKIPTEKRTRRKLMPSPLKGQHTLKSPPSQSVQLNDSLSKELQPIVYTPEDCRKAFQNPSTVTLMKPSSFTTSFQAISSNINSDNCLKMLCEVAIPHNRRKECGQEDLDSTFTICEDIK
notes: not shown: His6, N-terminal, kept; GFP, C-terminal, kept

Target: the molecule itself
Assay: photobleaching step counting (TIRF microscopy, streaming mode); single GFP-tagged motors moving on immobilised microtubules, ATP reduced to 15 µM, 100 ms exposure for 1200 frames; only one and two step bleaching events seen

Protein	stoichiometry N
B1	2
B2	2
